The data set has as its system Saccharomyces cerevisiae. Put plainly: transcriptional activation domain activity (GFP:mCherry ratio, weighted mean of sorted bins, harmonized to initial dataset scale) (arbitrary fluorescence ratio units); higher = stronger transcriptional activation. The note with it: beta-estradiol 1 µM; induction time 4 h. A digest of the protocol: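 In diploid yeast carrying a GFP reporter, barcoded protein tiles fused to an estradiol-inducible synthetic transcription factor were integrated at the URA3 locus. Cultures diluted 1:5 into SC with 1 uM beta-estradiol were kept at 30 °C for 4 hours, then sorted by GFP:mCherry ratio into 8 bins before barcode sequencing. Tiles with under 50 reads were excluded. The activation activity reported here is the read-weighted mean of bin median fluorescence, averaged across barcodes and linearly rescaled to the initial dataset.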

As to “LYAWLSFFWVLVYVYFFSITVYLVVKGSRSILDLSHGSPSPLLTGSLFACLVW”, the “transcriptional activation domain activity” value came to 58700.

Regarding “SKSESTHSSAKKADSGKRSGRSKPATSDGGPKGFDSKPSGEKSKKESSRSTKE”, the “transcriptional activation domain activity” value worked out at 36600.

“AIATPVCAAGDFPGNLLLHHSITIPFIYVTLSFFYIFALFLFFLLSIFLVAWL”: the “transcriptional activation domain activity” value amounted to 50300.

Turning to “EEPVPKKRGRGRPPKNPAAKAKAAAAAAAAKKAERLPKVRVHKAHTPLRENIH”, the “transcriptional activation domain activity” value was below 6570.

“MDPGLFLMVLLWLSLPLSIVPWNLPMNWCFQSCDTIRPYQARLSGFFLLLLFQ”: the “transcriptional activation domain activity” value amounted to 48600.

For “GANADELGHIIVTRRNRFWKIKGIVGGRILSMPELERWTLFVLLMCFRLHIYP”, the “transcriptional activation domain activity” value was 23900.

For the sequence “MGSQLPHLQLSDTDGAGPMKRRRPALACVECRRRKVKCDRKKPCSPCTRIKSL”, the “transcriptional activation domain activity” value turned out to be 69900.

With “TYAIWNCNKWILCILVVVASGVYISSAVILHDIFQSYEYPVLSLPTKMYCLPF”, the “transcriptional activation domain activity” value came to 18700.

Turning to “VGLFGMGQKRISALIGVLFAFTLGCVLILRWRLPWYRNLIQTLLYHLFVIYLH”, the “transcriptional activation domain activity” value came to 52600.

In the case of “GISHNQLSNDDVLLNPSDTGFSPTDNGDGDDGEPHSTLRMAWLLTRVLEHAPL”, the “transcriptional activation domain activity” value came out at 46600.

As to “RHHPEIINALVTLIATASTTHVKYTFQGILDHYSYYVLVDGFTLKQLTWMQGI”, the “transcriptional activation domain activity” value came out at 62700.

“DQVMKIKPVQKQTTAGQRTRFKAVVVVGDSNGHVGLGVKTAKEVATAIRAAII”: the “transcriptional activation domain activity” value came to 72700.

As for “AQPSAGFGQPSTIGAKPNPFGAPAFGQPAQPAGPAFGQPSQPTTTAAFGQPSQ”, the “transcriptional activation domain activity” value stood at 29900.

On to “KSSKEKDTASVKRGSVESDDTPAAAAAATKGKQLSKDGDADDDSDESDEEKEQ”, for which the “transcriptional activation domain activity” value is 33700.

For the sequence “EKKEGAEKEGGEKKEAGGEGEKKVGGEGEKKEGGEGEMKESGVEGGKKEASES”, the “transcriptional activation domain activity” value came out at 26600.

As for “EEEQPKKKSARKKKNAEDEDEDWDAKPKPKAKPKAKAAKKKAADGEEAGDAEK”, the “transcriptional activation domain activity” value was 26200.

As to “LVSHTVFKIIAICRHYAPPDGYMLAYVLCSSFALASTLWCTLLIICRIVILVQ”, the “transcriptional activation domain activity” value was 39100.

On to “GLNPLRTTLMMSLNIIRSLFPAFRGYSQALIVDELQSLIASESFTWSRLLWLM”, for which the “transcriptional activation domain activity” value stood at 57900.

On to “VAEDLFERVRLDWLILFDLRMWKKVRCDLRSLYISTVVTIPEFKRVLGLRFAG”, for which the “transcriptional activation domain activity” value stood at 37300.

Regarding “ELGSFRLLSFRVWCLLGTGSFWGLLYTAIAKMDGYTFGFLLQAHHVLKLLLVS”, the “transcriptional activation domain activity” value worked out at 54400.

For “SMRDSASDQETSWELQMFKTENVPESTTLPAVDNNNLFDAVASPLADPLCDDI”, the “transcriptional activation domain activity” value amounted to 53300.

“ADALSARSPKKGKKGKKGKKGKKGKKGKKAGAAAAAAGGAAGANGAKAAGAKA”: the “transcriptional activation domain activity” value is 33300.

As for “AVGLPNPHAHTLLQSLYYLRSITFSLLRLKMEQRLSLLIPSYLTIWKLDRKAL”, the “transcriptional activation domain activity” value came out at 68400.

As for “MIGHWFVLLNLISNWIVLSSFSILFYIYIYMPLYCHYAPFIFMLFLLYIPLLI”, the “transcriptional activation domain activity” value amounted to 48800.

On to “LFLMVAPYPSLLIVLVNHYLRTLDKPIAFVIHFLVIFTLKFLAFISLIVCVAR”, for which the “transcriptional activation domain activity” value came to 75600.

Regarding “GGKEEGGEETGERATKQQKTTPQESNKGSQGGNNNQRQGGGRNRHGRNRNGGG”, the “transcriptional activation domain activity” value came out at 30400.

On to “KDEVMKIKPVQKQTTAGQRTRFKAVVIVGDSNGHVGLGIKSAKEVATAIRAAI”, for which the “transcriptional activation domain activity” value amounted to 55100.

With “MIFSNLLVLSLLCSLFLFFYFFFYVLCFFLFAYTLSRSLYITILGFFDLVIVF”, the “transcriptional activation domain activity” value came to 66200.

Turning to “GERDIDVSSIEDVVKRECKKRVENEKLAQVGYAYDLAHSKAAAHLEAVKKLRK”, the “transcriptional activation domain activity” value amounted to 32900.

For the sequence “KRKDAAKKKSEREWKDRVKGVEKAGRDRQKRREENIRKRKEEKGRGKGKKGKG”, the “transcriptional activation domain activity” value was 6830.

Consider “ADTILITMVGIFDLIACFFTCIVQVLRFKMGISVQEILIWCWFDLLIFSTSTF”, for which the “transcriptional activation domain activity” value was determined as 34300.

Regarding “MVIQKYMFLYFLFCILIFLCIQDLDQDKYNDSLWCSRPFYCHNLFIIILAFIH”, the “transcriptional activation domain activity” value worked out at 51800.

With “TDVYYALRPGYQDDEVWDLLPLPTFPQLHMLTLNMLHISFQFPNWWTLWFKWI”, the “transcriptional activation domain activity” value is 68900.

Turning to “FLLGVFVCLVNLREWWMVDRGPRIMMGEFGKVLSVRMRFALTLHFREQVHVNH”, the “transcriptional activation domain activity” value was 48800.

With “GAKEEGGKKEAGGEKKEGSGKEGAKEGGEKGAKEGGEKKEGGEKGEGKEGGEG”, the “transcriptional activation domain activity” value amounted to 20300.

“EAATKVDAAADGTDEVADRIADLDVSTSSNSKKKKKNSKSKKKAAKEEPVRLR”: the “transcriptional activation domain activity” value was found to be 47300.

Take “MSTPFLANLLLIIWPTYYLLALSLHRALFQCTLSDFFSFFFFFFFFLFFLPFF”: the “transcriptional activation domain activity” value was found to be 52800.

Take “PPGRVAPDAESVGYVLHSRLLTLLFPLFFFSLPLYNSSLLAGWAGWGLMMITF”: the “transcriptional activation domain activity” value amounted to 62900.

As to “MIPSVMIRTSDYSLVIILSLCLVLKMMLICIVCSIESYLTNLDKWLFCLILCK”, the “transcriptional activation domain activity” value is 51300.

Consider “VDILLKRISTFSYTDSLTMSVAGQLRILYRFINVFYTARDLIGFLALVEKALD”, for which the “transcriptional activation domain activity” value came out at 22700.

Turning to “CFFYSAIWLTTIPHCTGRCVRPCGVHLINLGHVCRNHSRYWGYCICNNKMTPY”, the “transcriptional activation domain activity” value is 57600.

Regarding “RLFALLHLHILAYISFFISSSLAYHLHLFLLLLSYFSLLFCIFVSPRLGLSSC”, the “transcriptional activation domain activity” value was 66400.

With “ACIVFWMGSWVYKYQLMFVFVSKVESGGRVWNVVINRLLFCVVLMQCLMILTI”, the “transcriptional activation domain activity” value came out at 73700.

With “RRARSVVEVAQTDDTGEEEDNNINSSNNINNKKKKIILELENGAETLEGDLLL”, the “transcriptional activation domain activity” value turned out to be 16500.

In the case of “GPTIRHEMNLFHVYGRRNPHLRLMISLIYVWMRSWGVKEMSPRTLCLLLIRFF”, the “transcriptional activation domain activity” value turned out to be 48600.

Turning to “QQAGRTMSEGKKKRNTGKEEGEEGDEERKRKRRAEKKRKQRKRRMSKSTGEEE”, the “transcriptional activation domain activity” value worked out at 31700.

Take “KLKSLVAIVWILDFVHLILICQAIYHYLITNWGTTQRFCSPPRFSICTLCLSL”: the “transcriptional activation domain activity” value was found to be 55200.

On to “MWTVLVGFIRGFLLLLWHLAYPFHFFLYFQLILSSHRLEWLISLFVDAMTGIA”, for which the “transcriptional activation domain activity” value came out at 33400.

Consider “RRVWLKYILYFVYGIVDWVYSTSLLKTMVWLRLPLYITVGKHVLVGLVGSMWV”, for which the “transcriptional activation domain activity” value came to 50000.

As for “FLMVLCLFCIVYLFFSCFPFFAMSYVLLLLFCFYCILFYFSCPFCFVICNSVV”, the “transcriptional activation domain activity” value was found to be 54000.

Turning to “MRKNGSILSFRSFPPSPTFLPSFLLFFFSFPFFPVIFFQTPLLFLLLFFIYWG”, the “transcriptional activation domain activity” value came out at 42000.

Turning to “DELSRQKLGPDLHTILANLPGDLFGIYSRFLRPIHPRDFIHVARFLRWLLYAW”, the “transcriptional activation domain activity” value came to 69500.

Consider “AVAALVGVGFGLSGYFLVCNVYPILSSADSKSLCLLVLVLLALSFKVLFFNYY”, for which the “transcriptional activation domain activity” value was 48300.

For “MLSLIWCFKAWLLTIISLPSYIILRTPLPFLFSSSPLFRSSPFHFFFTSLSTH”, the “transcriptional activation domain activity” value was determined as 48100.

Consider “RSPRRQTQSSSTTPPARKTPTQTTKTHRTTSPTTRSSCRRASGRQTAPTHSSC”, for which the “transcriptional activation domain activity” value is 43100.

Consider “PSSTARRKLLLIYIDFKFFLAASWFRLCNLTLIGSVWWPIWGYMCWILSGPLF”, for which the “transcriptional activation domain activity” value amounted to 67300.

“YALIHFFRLYRSGHGPIRMFFLHIQALYNLFNLVFSWFALANLWLAFSIIIRL”: the “transcriptional activation domain activity” value was determined as 75800.

Take “KARQEKQPPMTQKDLATKVNEKPSVINDYESGRAVPNQQVLSKLERALQVKLR”: the “transcriptional activation domain activity” value was 22500.

For “NCSFIFLMLNCILAAFCFYNLSSIMNGLVYFDQFSLIPPLHLGLVTLGMCVLL”, the “transcriptional activation domain activity” value is 46400.

On to “KIHLVNIGQVLVLLLHRFLYGIIPLFEITTCAYFPFLVSLWHIQYILFYAVMF”, for which the “transcriptional activation domain activity” value is 84900.

For “WSSYTGPILSPGFSDLDWAPDPSNTTSGNLFIDLWPTWLSWMPDSTVLFTPWG”, the “transcriptional activation domain activity” value came to 49900.

In the case of “VLTLTFNDGKKHEDLSKQLLFVIHDIFSCDQNSPGYVLLRLLRSFLVLDVYMS”, the “transcriptional activation domain activity” value turned out to be 65000.

Take “SNGKEMAFQYYSFVKEWGHVLGRYPGEIERCLIGTLGNIFFSGVKPIANSYFL”: the “transcriptional activation domain activity” value was determined as 45400.

On to “HTQPNLVPWLRCFPADAISVELISHEYIIRILRPILPADWQRPLFYSHRIRMY”, for which the “transcriptional activation domain activity” value is 28900.

In the case of “YLAGPRVPFAPLSLPGIFLPTTWWNPGVFYFWTWRNHFYKTWGETVGFAPWFS”, the “transcriptional activation domain activity” value turned out to be 80500.

For the sequence “PMAVTLIERNVILGLRNAKTTDQLNTLINSLPFNNTSMLFLRLAMTKLSVIWS”, the “transcriptional activation domain activity” value came to 59900.

As to “EGGEKGTKEGGEKKEGAGEKEGGEKKEGGEKEGAKEGGEIGAKEGEEKKEGGE”, the “transcriptional activation domain activity” value was 17500.

On to “AAGGGGTGAGGAAGAARAAGHGAVGAAAGDGEQREGRAGRGRGHGRGVEGGRG”, for which the “transcriptional activation domain activity” value was 59200.

On to “FILYSLLLIPFPLNYILSYIFFFFFLILWGIYLAMRGFFKSWFSLWAWAGNGI”, for which the “transcriptional activation domain activity” value was determined as 64600.

With “ESFKPAPAPKKEEAPKEEAKPAEEGAKAEEAPKEGENKEEAKPAEEPKRRSAS”, the “transcriptional activation domain activity” value amounted to 28400.

Consider “AAEPAPEPVVEKAPAPKKRAGRQPKAETVVEDAPAPKKRGRGARKSEPAAVAE”, for which the “transcriptional activation domain activity” value was 21000.

Turning to “MGKKRCLERILFLFLYAILFHILLLLLPSFPFLYLYTFAFVFYFSLSIYLVSL”, the “transcriptional activation domain activity” value was determined as 43600.

In the case of “PKQYCVRPNAARLEPGERVEVQVLLQPMKEDPPEDTKCRDKFLIQSAAIPPQH”, the “transcriptional activation domain activity” value was 39200.

On to “LVREHELLGVIICHLVKSNQSGLTDLEYLLNIVKKIDKYDNLLVHYFPALGAL”, for which the “transcriptional activation domain activity” value was 24500.
